Patent US20200108156

Tests used:
[1] = test system: Cy5.5-NFP1 nanofiber peptide construct, mPEG2000-KKKKKKKLDLKLDLKLDLK-Cy5.5
[2] = test system: Cy5.5-NFP2 nanofiber peptide construct, mPEG2000 KLDLKLDLKLDLK-Cy5.5
[3] = test system: DM1-MCC-NFP1 (DM1-loaded NFP1 nanofiber)
[4] = test system: DM1-MCC-NFP2 (DM1-loaded NFP2 nanofiber)
[5] = test system: FITC-NFP1 nanofiber peptide construct, mPEG2000-KKKKKKKLDLKLDLKLDLK(FITC)
[6] = test system: FITC-NFP2 nanofiber peptide construct, mPEG2000-KLDLKLDLKLDLK(FITC)

Substance: Cathepsin B (CathB), purified from bovine spleen (EMD Millipore)
- fluorescence recovery after CathB activation [1]: CathB digestion of Cy5.5-NFP1 led to the release of Cy5.5-peptide fragments, thus resulting in the recovery of the fluorescence signal
- fluorescence recovery after CathB activation [2]: the fluorescence of Cy5.5-NFP2 was only slightly increased after exposure to CathB
- drug metabolites after CathB digestion (HPLC, MALDI-TOF) [3]: After CathB digestion, Lys-MCC-DM1 ... was identified in DM1-MCC-NFP1
- drug metabolites after CathB digestion (HPLC, MALDI-TOF) [4]: For DM1-MCC-NFP2, no drug metabolite was identified during CathB digestion due to its slow release property
- HPLC of nanofibers after 24 h CathB digestion (enzyme cleavage) [5]: CathB digested FITC-NFP1 into multiple peptide fragments after 24 hours
- HPLC of nanofibers after 24 h CathB digestion (enzyme cleavage) [6]: only one fragment was identified when FITC-NFP2 was subjected to CathB digestion
